Test results reported in US20120021995A1 (published 2012).

T1: recombinant human TRAIL R1 (DR4)/Fc chimera (human, UniProt O00220 24-239)
T1 construct: bought (R&D Systems); not shown: Fc of the bought chimera (R&D Systems)
T1 sequence: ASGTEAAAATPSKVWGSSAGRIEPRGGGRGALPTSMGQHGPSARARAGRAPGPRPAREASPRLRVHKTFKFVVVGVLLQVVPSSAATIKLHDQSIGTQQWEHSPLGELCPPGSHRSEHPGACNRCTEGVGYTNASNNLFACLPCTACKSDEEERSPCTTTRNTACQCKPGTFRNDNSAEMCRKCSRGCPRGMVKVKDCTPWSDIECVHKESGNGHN


Target: T1, recombinant human TRAIL R1 (DR4)/Fc …
Assay: phage ELISA on DR4/Fc

Binder | binding result
119p83P1A11 (designed binder, on phage) ALQTVCLKGTKVHMKCFLAFTQTKTFHEASEDCISRGGTLSTPQTGSENDALYEYLRQSVGNEAEIWLGLNGWLEGVGWVDMTGARIAYKNWDAPVSGQPDGGWPFSNENCAVLSGAANGKWFDKRCRDQLPYICQFGIV | binds
119p83P1C9 (designed binder, on phage) ALQTVCLKGTKVHMKCFLAFTQTKTFHEASEDCISRGGTLSTPQTGSENDALYEYLRQSVGNEAEIWLGLNGWLEGVGWVDMTGARIAYKNWGGEVLLQPDGGWPFSNENCAVLSGAANGKWFDKRCRDQLPYICQFGIV | binds
119p83P1D11 (designed binder, on phage) ALQTVCLKGTKVHMKCFLAFTQTKTFHEASEDCISRGGTLSTPQTGSENDALYEYLRQSVGNEAEIWLGLNGWLEGVGWVDMTGARIAYKNWQVHARSQPDGGWPFSNENCAVLSGAANGKWFDKRCRDQLPYICQFGIV | binds
119p94P1G1 (designed binder, on phage) ALQTVCLKGTKVHMKCFLAFTQTKTFHEASEDCISRGGTLSTPQTGSENDALYEYLRQSVGNEAEIWLGLNGWLEGVGWVDMTGARIAYKNWGEVIAPQPDGGWPFSNENCAVLSGAANGKWFDKRCRDQLPYICQFGIV | binds
119p83P1H12 (designed binder, on phage) ALQTVCLKGTKVHMKCFLAFTQTKTFHEASEDCISRGGTLSTPQTGSENDALYEYLRQSVGNEAEIWLGLNGWLEGVGWVDMTGARIAYKNWGTHISSQPDGGWPFSNENCAVLSGAANGKWFDKRCRDQLPYICQFGIV | binds
119p94P1E10 (designed binder, on phage) ALQTVCLKGTKVHMKCFLAFTQTKTFHEASEDCISRGGTLSTPQTGSENDALYEYLRQSVGNEAEIWLGLNGWLEGVGWVDMTGARIAYKNWRVPSLRQPDGGWPFSNENCAVLSGAANGKWFDKRCRDQLPYICQFGIV | binds
119p83P1F12 (designed binder, on phage) ALQTVCLKGTKVHMKCFLAFTQTKTFHEASEDCISRGGTLSTPQTGSENDALYEYLRQSVGNEAEIWLGLNGWLEGVGWVDMTGARIAYKNWFIPADRQPDGGWPFSNENCAVLSGAANGKWFDKRCRDQLPYICQFGIV | binds
119p83P1H5 (designed binder, on phage) ALQTVCLKGTKVHMKCFLAFTQTKTFHEASEDCISRGGTLSTPQTGSENDALYEYLRQSVGNEAEIWLGLNGWLEGVGWVDMTGARIAYKNWGTGVMGQPDGGWPFSNENCAVLSGAANGKWFDKRCRDQLPYICQFGIV | binds
119p94P1A4 (designed binder, on phage) ALQTVCLKGTKVHMKCFLAFTQTKTFHEASEDCISRGGTLSTPQTGSENDALYEYLRQSVGNEAEIWLGLNGWLEGVGWVDMTGARIAYKNWFAEFFLQPDGGWPFSNENCAVLSGAANGKWFDKRCRDQLPYICQFGIV | binds
119p94P1B6 (designed binder, on phage) ALQTVCLKGTKVHMKCFLAFTQTKTFHEASEDCISRGGTLSTPQTGSENDALYEYLRQSVGNEAEIWLGLNGWLEGVGWVDMTGARIAYKNWHPQGDRQPDGGWPFSNENCAVLSGAANGKWFDKRCRDQLPYICQFGIV | binds
119p83P1C12 (designed binder, on phage) ALQTVCLKGTKVHMKCFLAFTQTKTFHEASEDCISRGGTLSTPQTGSENDALYEYLRQSVGNEAEIWLGLNGWLEGVGWVDMTGARIAYKNWNSNVVLQPDGGWPFSNENCAVLSGAANGKWFDKRCRDQLPYICQFGIV | binds
119p94P1H3 (designed binder, on phage) ALQTVCLKGTKVHMKCFLAFTQTKTFHEASEDCISRGGTLSTPQTGSENDALYEYLRQSVGNEAEIWLGLNGWLEGVGWVDMTGARIAYKNWSLSWHPQPDGGWPFSNENCAVLSGAANGKWFDKRCRDQLPYICQFGIV | binds
119p83P1G12 (designed binder, on phage) ALQTVCLKGTKVHMKCFLAFTQTKTFHEASEDCISRGGTLSTPQTGSENDALYEYLRQSVGNEAEIWLGLNGWLEGVGWVDMTGARIAYKNWGSYGPFQPDGGWPFSNENCAVLSGAANGKWFDKRCRDQLPYICQFGIV | binds
119p83P1H7 (designed binder, on phage) ALQTVCLKGTKVHMKCFLAFTQTKTFHEASEDCISRGGTLSTPQTGSENDALYEYLRQSVGNEAEIWLGLNGWLEGVGWVDMTGARIAYKNWVNHGVGQPDGGWPFSNENCAVLSGAANGKWFDKRCRDQLPYICQFGIV | binds
119p83P1H8 (designed binder, on phage) ALQTVCLKGTKVHMKCFLAFTQTKTFHEASEDCISRGGTLSTPQTGSENDALYEYLRQSVGNEAEIWLGLNGWLEGVGWVDMTGARIAYKNWGGSISAQPDGGWPFSNENCAVLSGAANGKWFDKRCRDQLPYICQFGIV | binds
119p83P1H3 (designed binder, on phage) ALQTVCLKGTKVHMKCFLAFTQTKTFHEASEDCISRGGTLSTPQTGSENDALYEYLRQSVGNEAEIWLGLNGWLEGVGWVDMTGARIAYKNWSEDRPGQPDGGWPFSNENCAVLSGAANGKWFDKRCRDQLPYICQFGIV | binds
119p83P1A12 (designed binder, on phage) ALQTVCLKGTKVHMKCFLAFTQTKTFHEASEDCISRGGTLSTPQTGSENDALYEYLRQSVGNEAEIWLGLNGWLEGVGWVDMTGARIAYKNWQPGLWRQPDGGWPFSNENCAVLSGAANGKWFDKRCRDQLPYICQFGIV | binds
119p94P1H10 (designed binder, on phage) ALQTVCLKGTKVHMKCFLAFTQTKTFHEASEDCISRGGTLSTPQTGSENDALYEYLRQSVGNEAEIWLGLNGWLEGVGWVDMTGARIAYKNWSTAQNGQPDGGWPFSNENCAVLSGAANGKWFDKRCRDQLPYICQFGIV | binds
119p83P1G3 (designed binder, on phage) ALQTVCLKGTKVHMKCFLAFTQTKTFHEASEDCISRGGTLSTPQTGSENDALYEYLRQSVGNEAEIWLGLNGWLEGVGWVDMTGARIAYKNWYVRSEGQPDGGWPFSNENCAVLSGAANGKWFDKRCRDQLPYICQFGIV | binds
119p94P1D11 (designed binder, on phage) ALQTVCLKGTKVHMKCFLAFTQTKTFHEASEDCISRGGTLSTPQTGSENDALYEYLRQSVGNEAEIWLGLNGWLEGVGWVDMTGARIAYKNWGSTGEKQPDGGWPFSNENCAVLSGAANGKWFDKRCRDQLPYICQFGIV | binds
119p83P1C11 (designed binder, on phage) ALQTVCLKGTKVHMKCFLAFTQTKTFHEASEDCISRGGTLSTPQTGSENDALYEYLRQSVGNEAEIWLGLNGWLEGVGWVDMTGARIAYKNWAMHYYWQPDGGWPFSNENCAVLSGAANGKWFDKRCRDQLPYICQFGIV | binds
119p94P1B8 (designed binder, on phage) ALQTVCLKGTKVHMKCFLAFTQTKTFHEASEDCISRGGTLSTPQTGSENDALYEYLRQSVGNEAEIWLGLNGWLEGVGWVDMTGARIAYKNWWSYWDTQPDGGWPFSNENCAVLSGAANGKWFDKRCRDQLPYICQFGIV | binds
119p94P1E7 (designed binder, on phage) ALQTVCLKGTKVHMKCFLAFTQTKTFHEASEDCISRGGTLSTPQTGSENDALYEYLRQSVGNEAEIWLGLNGWLEGVGWVDMTGARIAYKNWIWSRIEQPDGGWPFSNENCAVLSGAANGKWFDKRCRDQLPYICQFGIV | binds
119p83P1D10 (designed binder, on phage) ALQTVCLKGTKVHMKCFLAFTQTKTFHEASEDCISRGGTLSTPQTGSENDALYEYLRQSVGNEAEIWLGLNGWLEGVGWVDMTGARIAYKNWGRRRNLQPDGGWPFSNENCAVLSGAANGKWFDKRCRDQLPYICQFGIV | binds
119p94P1B2 (designed binder, on phage) ALQTVCLKGTKVHMKCFLAFTQTKTFHEASEDCISRGGTLSTPQTGSENDALYEYLRQSVGNEAEIWLGLNGWLEGVGWVDMTGARIAYKNWWFPTLSQPDGGWPFSNENCAVLSGAANGKWFDKRCRDQLPYICQFGIV | binds
119p94P1D4 (designed binder, on phage) ALQTVCLKGTKVHMKCFLAFTQTKTFHEASEDCISRGGTLSTPQTGSENDALYEYLRQSVGNEAEIWLGLNGWLEGVGWVDMTGARIAYKNWAAFPVEQPDGGWPFSNENCAVLSGAANGKWFDKRCRDQLPYICQFGIV | binds
119p94P1D2 (designed binder, on phage) ALQTVCLKGTKVHMKCFLAFTQTKTFHEASEDCISRGGTLSTPQTGSENDALYEYLRQSVGNEAEIWLGLNGWLEGVGWVDMTGARIAYKNWLDVTKTQPDGGWPFSNENCAVLSGAANGKWFDKRCRDQLPYICQFGIV | binds
